Molecular target: T1, anti-CD28 Fab (SEQ ID NOs: 202, 203)
T1 construct: biotinylated and captured on neutravidin coated plates in the phage ELISA
Experiment: phage binding ELISA; biotinylated Fab on neutravidin plate;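 also: clonal phage supernatants added to Fab wells pretreated with CD28 antigen or with blocking buffer only, bound phage read out via HRP-linked anti-M13 antibody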
Procedure: (§1) Clonal phage were harvested as crude supernatants and screened via standard ELISAs. […] Prior to the addition of clonal phage, wells were incubated with blocking buffer and CD28 antigen or blocking buffer alone. Without washing or aspirating, clonal phage supernatants were then added to the wells and incubated for a short time. Wells were then washed followed by detection of bound phage using a horse radish conjugated anti-M13 antibody.

T1 sequence (VH, as listed by the source, chain 1 of 2): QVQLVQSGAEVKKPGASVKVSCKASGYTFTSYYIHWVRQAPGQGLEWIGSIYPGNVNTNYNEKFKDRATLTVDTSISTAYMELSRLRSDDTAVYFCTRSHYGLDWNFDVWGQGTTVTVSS
T1 sequence (VL, as listed by the source, chain 2 of 2): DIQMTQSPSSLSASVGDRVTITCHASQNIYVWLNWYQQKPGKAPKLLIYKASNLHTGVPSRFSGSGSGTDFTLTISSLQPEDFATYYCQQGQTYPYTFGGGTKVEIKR

| Binder | Anti-CD28 Fab (SEQ ID NOs: 202, 203) signal |
| --- | --- |
| YCDGHAPEYMKKCL [Phage-306] | 1.9 |
| YCDGHIPEYLAKCL [Phage-391] | 1.76 |
| YCEGHAAEYMWKCL [Phage-353] | 1.83 |
| YCEGHAQEYMSKCL [Phage-439] | 1.7 |
| YCDGHLSEYMAKCL [Phage-424] | 1.72 |
| YCDGHASEYMAKCL [Phage-407] | 1.75 |
| YCDGHEPQYLEKCL [Phage-308] | 1.9 |
| YCDGHSQEYMWKCL [Phage-305] | 1.9 |
| YCDGHSQEYMLKCL [Phage-392] | 1.76 |
| YCDGHVEEYLYKCL [Phage-310] | 1.9 |
| YCEGHLPEYMQKCL [Phage-404] | 1.75 |
| YCEGHLPDYMQKCL [Phage-412] | 1.73 |
| YCSGHLPEYMQKCL [Phage-403] | 1.75 |
| YCSGHLPEYMGKCL [Phage-417] | 1.73 |
| YCAGHSSEYIWKCL [Phage-362] | 1.82 |
| YCAGHSAEYMAKCL [Phage-419] | 1.73 |
| YCAGHSAEYMWKCL [Phage-433] | 1.71 |
| YCEGHSAEYMLKCL [Phage-401] | 1.75 |
| YCSGHSAEYMLKCL [Phage-411] | 1.73 |
| YCDGHSKEYMHKCL [Phage-307] | 1.9 |
| YCDGHSPEYMNKCL [Phage-399] | 1.75 |
| YCDGHAEEYMSKCL [Phage-309] | 1.9 |
| YCAGHLEEYMDKCL [Phage-311] | 1.9 |

Molecular target: T2, Anti-CD28 Fab (SEQ ID NOs: 202, 203)
T2 construct: biotinylated and captured on neutravidin coated plates in the phage ELISA
T2 sequence (VH, as listed by the source, chain 1 of 2): as the sequence (VH, as listed by the source, chain 1 of 2) above
T2 sequence (VL, as listed by the source, chain 2 of 2): as the sequence (VL, as listed by the source, chain 2 of 2) above
Experiment: phage ELISA on captured biotinylated Fab;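 also: wells preblocked with or without CD28 antigen, then clonal phage supernatant added briefly, washed, and bound phage read out by ELISA using HRP-linked anti-M13 antibody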
Procedure: as §1

| Binder | Anti-CD28 Fab signal |
| --- | --- |
| YCDGHTQEYMAKCL [Phage-168] | 2.17 |
| YCDGHLPEYLGKCL [Phage-274] | 1.96 |
| YCAGHSVEYMAKCL [Phage-275] | 1.96 |
| YCDGHSPMYIGKCL [Phage-247] | 2.03 |
| YCDGHSNEYMAKCL [Phage-175] | 2.16 |
| YCDGHSLEYMAKCL [Phage-180] | 2.15 |
| YCAGHLEIYMNKCL [Phage-283] | 1.94 |
| YCDGHSPEHIRKCL [Phage-282] | 1.94 |
| YCQGHLPEYMSKCL [Phage-258] | 2.01 |
| YCDGHVAEYMAKCL [Phage-177] | 2.16 |
| YCDGHMPEYMWKCL [Phage-170] | 2.17 |
| YCDGHAPEYMEKCL [Phage-254] | 2.01 |
| YCDGHLEQYRAKCL [Phage-273] | 1.96 |
| YCEGHLSEYMAKCL [Phage-284] | 1.94 |
| YCDGHSHEYMEKCL [Phage-257] | 2.01 |
| YCEGHSLEYMGKCL [Phage-253] | 2.02 |
| YCDGHLKEYQEKCL [Phage-299] | 1.91 |
| YCDGHLIEYMYKCL [Phage-278] | 1.95 |
| YCDGHEAQYMSKCL [Phage-256] | 2.01 |
| YCDGHVAEYRDKCL [Phage-173] | 2.17 |

| Binder | Anti-CD28 Fab signal |
| --- | --- |
| YCDGHMGVYYWKCL [Phage-255] | 2.01 |
| YCEGHRPEYMQKCL [Phage-249] | 2.03 |
| YCDGHLPEYMWKCI [Phage-178] | 2.15 |
| YCAGHAPEYMQKCL [Phage-174] | 2.16 |
| YCAGHAPEYIQKCL [Phage-172] | 2.17 |
| YCAGHLPEYMMKCL [Phage-248] | 2.03 |
| YCDGHLVEYMSKCL [Phage-280] | 1.95 |
| YCAGHSPEYMTKCL [Phage-171] | 2.17 |
| YCEGHSPEYMTKCL [Phage-251] | 2.02 |
| YCDGHSAEYMWKCL [Phage-179] | 2.15 |
| YCDGHSSEYMIKCL [Phage-277] | 1.95 |
| YCDGHSAEYMQKCL [Phage-279] | 1.95 |
| YCDGHSALYMWKCL [Phage-276] | 1.96 |
| YCEGHAPQYIAKCL [Phage-246] | 2.03 |
| YCEGHLPVYMWKCL [Phage-169] | 2.17 |
| YCEGHSIQYMAKCL [Phage-252] | 2.02 |
| YCEGHAREHMAKCL [Phage-250] | 2.02 |
| YCEGHLPQYLQKCL [Phage-176] | 2.16 |
| YCEGHLPIYLSKCL [Phage-285] | 1.94 |
| YCEGHLSQYMEKCL [Phage-281] | 1.95 |

Source: US20260274955A1 (JANUX THERAPEUTICS, published 2026)
